Assay results as given in publication PMC12407261.

Key:
[1] = biological target: Streptomyces lydicus Family 2B encapsulin shell protein Sl‐Enc1 with N‐terminal His‐tag (Streptomyces lydicus); experiment: affinity purification with mass spectrometry; two-gene operon co-expressed in E. coli BL21 (DE3), only one of the two shell proteins His-tagged; Ni-NTA then SEC; SDS-PAGE bands identified by tryptic digest and LC-MS; ratio by gel densitometry
[2] = biological target: Streptomyces lydicus Family 2B encapsulin shell protein Sl‐Enc2 with N‐terminal His‐tag (Streptomyces lydicus); experiment: cryo-EM structure; Sl‐Enc2 majority mixed sample, 2 mg/mL in 150 mM NaCl, 25 mM Tris pH 8.0; consensus refinement with icosahedral symmetry imposed, 2.59 Å

| apparent share of Sl‐Enc1 in the purified mixed shells (gel densitometry) [1] | apparent share of Sl‐Enc2 in the purified mixed shells (gel densitometry) [1] | stoichiometry N [2] | Substance |
| --- | --- | --- | --- |
| 60% | 40% | – | Streptomyces lydicus Family 2B encapsulin shell protein Sl‐Enc2, untagged (natural protein) |
| – | – | 60 | Streptomyces lydicus Family 2B encapsulin shell protein Sl‐Enc2 with N‐terminal His‐tag (natural protein) |
